Values joined by “and” are separate entries in the source; they are usually repeats but may differ in a detail not shown here. Equal values may be shown once. Read-outs that look alike come from different tables or passages of the source. No end group written: not given here.

In data set [1] the test system is spontaneous lesions in apoE-knockout mice. Kind of data set: IP administration of modified 18A peptide to apoE-knockout mice on normal diet. In kind it is in vivo. As to conditions: for aortal lesions: IP administration, apoE-knockout mice. The method, then: Similar experiments were completed in apoE-knockout animals. The peptide used was a modified 18A of the present invention with the sequence:
This peptide was administered to animals on a normal diet, to determine if the intraperitoneal administration of this peptide would inhibit lesions that these animals produce spontaneously, even without high fat diet administration. The lesions in this case is different than that produced after sixteen weeks of high fat diet administration in 57BL6/J mice.

For data set [2], the system named is plasma cholesterol in B16/SJL mice. Kind of data set: Effect of peptides on total cholesterol, high fat diet administered to B16/SJL mice. The data set is classed as in vivo. As to the method:
Peptide injections (50 μg/animal/day for 16 weeks).

Data set [3] has as its system diet administered atherosclerosis in peptide transgenic mice. Description: In vitro fertilized peptide-transgenic mice on high fat diet for 16 weeks (plasma peptide, cholesterol, aortic cross-section). In kind it is in vivo. As to conditions: transgenic IVF mice, retroorbital bleed, Western analysis; some of the mice. From the text:
The peptide gene was then cloned into the MunI site of the apoE-promoter that is specific for expression of the peptide/protein in the liver. SalI-Spel fragment of the apoE promoter to which the peptide gene was subcloned was microinjected into mouse oocytes to produce transgenic mice. […] Further transgenic mice were generated from these two founders and analysed for the presence of peptide gene.
This produced a number of animals with the peptide gene present in different amounts. Western analysis using the antibody produced for the chemically synthesized peptide indicated the presence of peptide in different amounts (FIG. 4).
The animals were then administered TeckLad diet that is known to produce foam cell lesions in 57BL6/J mice when administered for sixteen weeks. At the end of sixteenth week, mice were sacrificed, plasma was collected and the hearts were harvested. The aortal cross-sections were stained with Oil Red O that stains lipid laden fatty streaks. The plasma samples were subjected to lipoprotein analysis. The results of plasma analysis indicated clearly that the profiles were different from each other and some of the profiles looked very similar to the control mice on the normal diet, with the cholesterol values around ≤100 mg/dl.
Blood from the in vitro fertilized animals were obtained from the retroorbital bleed and red cells were separated by centrifugation. […]

In data set [4] the target is T1, HDL receptor on rat adrenal cells (Rattus norvegicus, UniProt P97943).
T1 construct: endogenous in cells; host or cells: rat adrenal cells
T1 sequence (P97943 1-509): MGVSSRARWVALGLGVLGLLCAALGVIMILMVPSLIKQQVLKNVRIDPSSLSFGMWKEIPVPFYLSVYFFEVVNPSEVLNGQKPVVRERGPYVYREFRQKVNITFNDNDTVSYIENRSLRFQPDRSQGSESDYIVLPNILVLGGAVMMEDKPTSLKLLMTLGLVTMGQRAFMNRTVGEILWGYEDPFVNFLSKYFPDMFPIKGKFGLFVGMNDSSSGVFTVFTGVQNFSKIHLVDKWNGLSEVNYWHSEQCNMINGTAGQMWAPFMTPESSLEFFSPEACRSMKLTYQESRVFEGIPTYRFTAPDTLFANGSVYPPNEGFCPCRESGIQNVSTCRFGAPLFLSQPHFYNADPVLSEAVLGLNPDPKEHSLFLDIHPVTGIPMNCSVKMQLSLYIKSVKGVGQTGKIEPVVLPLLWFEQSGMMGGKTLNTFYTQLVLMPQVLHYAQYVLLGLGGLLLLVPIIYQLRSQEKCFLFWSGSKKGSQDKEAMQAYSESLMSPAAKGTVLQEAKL
Description: Competition with HDL for binding to rat adrenal cells. The text has this:
5) The amphipathic helical peptide 18A-Pro-18A competes with HDL for binding to rat adrenal cells. Recently, it has been shown that HDL delivers cholesterol to the cells through class B scavenger receptor SRBI. This receptor binds HDL with high affinity and is primarily expressed in the liver and in nonplacental steroidogenic tissues.

A further data set deals with neutrophil activation. Description: Neutrophil activation. The data set is classed as cell-based.
Data set [5] can be described thus: Stability of peptide lipid complex. The data set is classed as physicochemical. As to conditions: compared to 18A-Ala-18A and 18A-18A. From the text: 1. The tandem repeating class A amphipathic helix linked by a proline forms an optimal arrangement for lipid association.
(§1) 2. The amphipathic helical peptide 18A-Pro-18A is the closest mimic of human apoA-I as a bilayer stabilizer. Bilayer stabilizers increase the transition temperature of DOPE whereas destabilizing molecules decrease the transition temperature. Such a destabilization can cause the inverted phase lipids (or hexagonal phase). Formation of this by the lytic peptide can be inhibited by human apoA-I or class A peptides.

Data set [6] deals with human placental lactogen synthesis. Description: Stimulation of human placental lactogen synthesis. The data set is classed as cell-based.
Data set [7] in a line: Turnover (clearance curves) in rats. The settings on record: 18A-Pro-18A versus human apo A-I.
Data set [8] in a line: IP administration of radiolabelled 18A-Pro-18A and human apo A-I in mice, plasma radioactivity. The data set is classed as in vivo, 57BL6/J mice. The settings on record: for amount of the injected dosage present in the blood: 4 or 5 hours following IP injection, based on specific activity; for Total plasma cpm as a percent of the injected cpm: IP, radiolabelled, 4 or 5 hours (respectively) after injection, plasma volume assumed 4.2% of body weight; for presence of the radiolabel in isolated lipoprotein fractions (FPLC): after IP injection; for form of radioactivity in the plasma (TCA precipitation and FPLC analysis): early time points (up to 5 hours). The method, then:
Since the peptide administration experiments involves intraperitoneal administration of peptide, the effect of administration of radiolabelled peptide and human apo A-I was compared in mice. Briefly, approximately 200,000 cpm of either the peptide (4.4 μg) or human apo A-I (3.0 μg) were administered intraperitoneally into 57BL6/J mice and blood samples were taken by retro-orbital bleeding from anesthetized animals. The final time point was taken from the axilla of anesthetized animals. Radioactivity was measured in plasma sample, and was calculated as total plasma cpm, assuming plasma volume as 4.2% of the body weight.
Based on the specific activity of the radiolabelled materials, approximately […] of the injected dosage was present in the blood after 4 or 5 hours following the injection. […] It should be noted that the major lipoprotein in 57BL6/J mice is HDL.
Thus, intraperitoneal administration allows for the peptide or human apoA-I to be released into plasma gradually. Intraperitoneal administration of the peptide is therefore feasible

The subject of data set [9] is HIV-I Gp4l-induced cell fusion. Kind of data set: HIV-I Gp41-induced cell fusion. In kind it is cell-based.
For data set [10], the system named is diet-induced lipid accumulation in C57 BL6/J mice. Description: IP administration of peptide for sixteen weeks to high fat diet administered C57BL 6/J mice (aortal histology, total cholesterol, mortality). In kind it is in vivo. As to the method:
C57BL mice were administered a high cholesterol diet (modified Thomas Hartcroft) and were divided into two groups. Group I received intraperitoneal administration of saline each day for 16 weeks. Group II received intraperitoneal administration of the peptide solution (μg/mice/day) for 16 weeks. At the end of the experiment, mice were sacrificed and aortas were harvested, cross-sectioned and stained with Oil Red O. FIGS. 1A-1F show the cross sections of the aortas from animals 1 and 2.
A dosage of peptide to be injected was selected based on the in vivo studies conducted using 18A to inhibit the LPS-induced toxicity in mice (Levine, et al., PNAS, 1993, 90:12040-12044). In these experiments, […] of the peptide 18A was used per mouse to inhibit endotoxin-induced death of mice. Because of the solubility of the peptide 37pA, and since it was desirable to maintain the same volume used by Levine et al, […] of peptide per mouse per day was injected.
Peptide 18A-Pro-18A dissolved in sterile saline was administered IP everyday for sixteen weeks 11 animals on high fat diet. Control animals on high fat diet were administered saline for sixteen weeks. At the end of sixteen weeks, animals were sacrificed and histology of hearts were done. The mortality in both the groups were similar (only three in each groups) indicating no toxicity due to peptide 18A-Pro-18A administration.

The subject of the next data set is cholesterol-loaded cells. Kind of data set: Efflux of phospholipid and cellular cholesterol from cholesterol-loaded cells. In kind it is cell-based. From the text:
4) The amphipathic helical peptide 18A-Pro-18A mimics HDL in clearing cellular cholesterol. The removal of cholesterol from peripheral cells by HDL is thought to initiate the process of reverse cholesterol transport. HDL is capable of stimulating the net release of cholesterol from cells. This process thus inhibits the formation of foam cells, the hallmark of atherosclerosis.

Data set [11] in a line: Bilayer stabilization (transition temperature of DOPE). In kind it is physicochemical.
Excerpt: as §1

The nature of data set [12]: BSA-induced lysis of fatty acid-containing vesicles.
The conditions of data set [13]: rat, in vivo.

Turning to “Ac-DWLKAFYDKVFEKFKEFF-NH2 [5F, Ac-Asp-Trp-Leu-Lys-Ala-Phe-Tyr-Asp-Lys-Val-Phe-Glu-Lys-Phe-Lys-Glu-Phe-Phe-NH2]”, the aortal lesions result in data set [1] (listed as SEQ No. 2) is reported as “effective”; in data set [1] (listed as modified 18A), “virtually no lesion”. Further, the “VLDL-density particles in cholesterol profile compared to control animals” value in data set [1] (after sixteen weeks, IP, normal diet) was “decreased considerably”. Besides, the Total cholesterol in data set [2] (high fat diet, 50 μg/animal/day for 16 weeks, individual mice (Table III)) was 156 and 161 and 182. The “levels of plasma cholesterol” value in [2] (peptide injections 50 μg/animal/day for 16 weeks) is “markedly decreases”.

As to “DEPDWLKAFYDKVAEKLKEAFPDWLKAFYDKVAEKLKEAF [Asp-Glu-Pro-18A-Pro-18A]”, the “amount of peptide in the plasma” value in data set [3] is “approximately 20 μg/ml”.

As for “DWLKAFYDKVAEKLKEAFPDWLKAFYDKVAEKLKEAF [18A-Pro-18A, class A amphipathic helical peptide 18A as head-to-tail dimer with a proline incorporated]”, in data set [4], the “competition with HDL for binding” value is given as “competes”. In the data set with neutrophil activation, the “effectiveness in neutrophil activation” value is “most effective peptide”. Moreover, the stability of complex result in data set [5] is listed as “most stable complex”. The “effectiveness in stimulating human placental lactogen synthesis” value in data set [6] is given as “most effective peptide”. For the same substance, the clearance curves result in [7] was “virtually superimposable”. Further, in [8], the “amount of the injected dosage present in the blood” value is recorded as “approximately 1 mg”; the “Total plasma cpm as a percent of the injected cpm” value was 25.5%; the “presence of the radiolabel in isolated lipoprotein fractions (FPLC)” value is “exclusively in HDL”; the “form of radioactivity in the plasma (TCA precipitation and FPLC analysis)” value was “present in the intact peptide/protein”. For the same substance, the “effectiveness in HIV-I Gp4l-induced cell fusion” value in data set [9] is “most effective peptide”. In addition, the “antibody to the peptide” value in data set [10] (IP every day for sixteen weeks) is listed as “no antibody was detected”. Besides, the “toxicity (mortality compared with saline group)” value in data set [10] (IP every day for sixteen weeks, high fat diet) was “no toxicity”. The “foam cells in cross sections from the aorta” value in data set [10] (IP over 16 weeks, high fat diet, FIG. 1C) was “no foam cells can be seen”. Further, the “lipid accumulation in aortal cross sections compared to the control group” value in data set [10] (IP sixteen weeks, high fat diet, Oil Red O) was “less lipid accumulation”. The Total cholesterol in [10] (mice on high fat diet and peptide administered, individual mice (Table I)) is 156 mg/dL and 161 mg/dL and 182 mg/dL. Also, the “efflux of phospholipid and cellular cholesterol” value in the data set on cholesterol-loaded cells is recorded as “effectively effluxes”. For the same substance, the bilayer stabilizing property result in data set [11] is “most bilayer stabilizing property”. In data set [12], the “effectiveness in BSA-induced lysis of fatty acid-containing vesicles” value is reported as “most effective peptide”.

On to “human apo A-I: human apolipoprotein A-I, protein component of HDL, used as comparator”, for which the clearance curves entry in data set [13] is listed as “virtually superimposable”. For the same substance, in data set [8], the “amount of the injected dosage present in the blood” value is given as “approximately 1 mg”; the “Total plasma cpm as a percent of the injected cpm” value is listed as 32%; the “presence of the radiolabel in isolated lipoprotein fractions (FPLC)” value is “exclusively in HDL”; the “form of radioactivity in the plasma (TCA precipitation and FPLC analysis)” value is on record as “present in the intact peptide/protein”.

(Values after patent US6156727A, “Anti-atherosclerotic peptides and a transgenic mouse model of antherosclerosis” (UAB Research Foundation, priority 1997, dated 2000).)
